Reference: PMC3277711 (Cell, 2012)

B1: chicken CENP-S-X complex (full-length CENP-S with CENP-X) (complex)
chain 1: MEAAGGEQRELLIQRLRAAVHYTTGCLCQDVAEDKGVLFSKQTVAAISEITFRQCENFARDLEMFARHAKRSTITSEDVKLLARRSNSLLKYITQKSDELASSNMEQKEKKKKKSSAAKGRKTEENETPVTESEDSNMA
chain 2: MEEREGGFRKETVERLLRLHFRDGRTRVNGDALLLMAELLKVFVREAAARAARQAQAEDLEKVDIEHVEKVLPQLLLDFVV
B2: chicken CENP-SΔC-X complex (complex)
chain 1: MEAAGGEQRELLIQRLRAAVHYTTGCLCQDVAEDKGVLFSKQTVAAISEITFRQCENFARDLEMFARHAKRSTITSEDVKLLARRSNSLLKYITQKSDELASSNME
chain 2: B1 chain 2

Tests used:
SEC = target: the molecule itself; test: SEC
[1] = target: chicken CENP-T-W complex (CENP-T histone fold with CENP-W) (chicken) (UniProt F1NPG5); test: SEC
crystal structure = target: the molecule itself; test: crystal structure

| Binder | stoichiometry N (SEC) | stoichiometry N (CENP-S-X dimer per CENP-T-W dimer) [1] | stoichiometry N (crystal structure) |
| --- | --- | --- | --- |
| B1 | 2 CENP-S-X heterodimers in the oligomer | 1 | – |
| B2 | – | – | 2 CENP-S-X heterodimers in the oligomer |
